Test results taken from patent US20250179176A1, “ANTI-TIGIT ANTIBODIES AND USES OF THE SAME” (ARCUS BIOSCIENCES, INC., priority 2022, published 2025).

Test: Clinical safety of domvanalimab, 99 participants (AB154CSP0001 and ARC-7): TEAEs, related AEs, SAEs
Type: in vivo, human

B1: domvanalimab: anti-TIGIT antibody with engineered IgG1 Fc, reduced FcγR binding; heavy chain SEQ ID NO: 12, light chain SEQ ID NO: 13 (antibody)
heavy: EVQLVESGGGLVQPGGSLRLSCAASGFTFSNFGMHWVRQAPGKGLEWVAFISSGSSSIYYADTVKGRFTISRDNAKNSLYLQMNSLRAEDTAVYYCARMRLDYYAMDYWGQGTMVTVSSASTKGPSVFPLAPSSKSTSGGTAALGCLVKDYFPEPVTVSWNSGALTSGVHTFPAVLQSSGLYSLSSVVTVPSSSLGTQTYICNVNHKPSNTKVDKKVEPKSCDKTHTCPPCPAPEAAGGPSVFLFPPKPKDTLMISRTPEVTCWVDVSHEDPEVKFNWYVDGVEVHNAKTKPREEQYNSTYRWSVLTVLHQDWLNGKEYKCKVSNKALPAPIEKTISKAKGQPREPQVYTLPPSRDELTKNQVSLTCLVKGFYPSDIAVEWESNGQPENNYKTTPPVLDSDGSFFLYSKLTVDKSRWQQGNVFSCSVMHEALHNHYTQKSLSLSPGK
light: DIQMTQSPSSLSASVGDRVTITCRASKSISKYLAWYQQKPGKAPKLLIYSGSTLQSGVPSRFSGSGSGTDFTLTISSLQPEDFATYYCQQHNEYPWTFGGGTKVEIKRTVAAPSVFIFPPSDEQLKSGTASWCLLNNFYPREAKVQWKVDNALQSGNSQESVTEQDSKDSTYSLSSTLTLSKADYEKHKVYACEVTHQGLSSPVTKSFNRGEC
Question: Which results are given for B1?
Answer: SAE small bowel obstruction, frequency (99 participants): 4.0%; Domvanalimab-related AE: Abdominal distension (AB154CSP0001 (N = 62)): 1 ( 1.6%); Domvanalimab-related AE: Abdominal pain (AB154CSP0001 (N = 62)): 1 ( 1.6%); Domvanalimab-related AE: Anaemia (AB154CSP0001 (N = 62)): 1 ( 1.6%); Domvanalimab-related AE: Any AEs (AB154CSP0001 (N = 62)): 32 (51.6%); Domvanalimab-related AE: Arthralgia (AB154CSP0001 (N = 62)): 1 (1.6%); Domvanalimab-related AE: Arthritis (AB154CSP0001 (N = 62)): 1 ( 1.6%); Domvanalimab-related AE: Aspartate aminotransferase increased (AB154CSP0001 (N = 62)): 1 ( 1.6%); Domvanalimab-related AE: Back pain (AB154CSP0001 (N = 62)): 1 ( 1.6%); Domvanalimab-related AE: Constipation (AB154CSP0001 (N = 62)): 1 ( 1.6%); Domvanalimab-related AE: Decreased appetite (AB154CSP0001 (N = 62)): 1 (1.6%); Domvanalimab-related AE: Diarrhoea (AB154CSP0001 (N = 62)): 3 (4.8%); Domvanalimab-related AE: Fatigue (AB154CSP0001 (N = 62)): 4 (6.5%); Domvanalimab-related AE: Flank pain (AB154CSP0001 (N = 62)): 1 ( 1.6%); Domvanalimab-related AE: Headache (AB154CSP0001 (N = 62)): 3 (4.8%); Domvanalimab-related AE: Hot flush (AB154CSP0001 (N = 62)): 1 ( 1.6%); Domvanalimab-related AE: Hyperglycaemia (AB154CSP0001 (N = 62)): 1 ( 1.6%); Domvanalimab-related AE: Hyperkalaemia (AB154CSP0001 (N = 62)): 1 ( 1.6%); Domvanalimab-related AE: Hyperthyroidism (AB154CSP0001 (N = 62)): 2 (3.2%); Domvanalimab-related AE: Hypokalaemia (AB154CSP0001 (N = 62)): 1 ( 1.6%); Domvanalimab-related AE: Hypothyroidism (AB154CSP0001 (N = 62)): 4 (6.5%); Domvanalimab-related AE: Immune-mediated hepatitis (AB154CSP0001 (N = 62)): 2 ( 3.2%); Domvanalimab-related AE: Influenza like illness (AB154CSP0001 (N = 62)): 1 ( 1.6%); Domvanalimab-related AE: Infusion related reaction (AB154CSP0001 (N = 62)): 1 ( 1.6%); Domvanalimab-related AE: Liver function test increased (AB154CSP0001 (N = 62)): 1 ( 1.6%); Domvanalimab-related AE: Lymphopenia (AB154CSP0001 (N = 62)): 1 ( 1.6%); Domvanalimab-related AE: Muscle spasms (AB154CSP0001 (N = 62)): 1 ( 1.6%); Domvanalimab-related AE: Musculoskeletal chest pain (AB154CSP0001 (N = 62)): 1 ( 1.6%); Domvanalimab-related AE: Nail disorder (AB154CSP0001 (N = 62)): 1 ( 1.6%); Domvanalimab-related AE: Nasal mucosal disorder (AB154CSP0001 (N = 62)): 1 ( 1.6%); Domvanalimab-related AE: Nausea (AB154CSP0001 (N = 62)): 5 (8.1%); Domvanalimab-related AE: Oral pain (AB154CSP0001 (N = 62)): 1 ( 1.6%); Domvanalimab-related AE: Pain (AB154CSP0001 (N = 62)): 2 ( 3.2%); Domvanalimab-related AE: Peripheral sensory neuropathy (AB154CSP0001 (N = 62)): 1 ( 1.6%); Domvanalimab-related AE: Pneumonitis (AB154CSP0001 (N = 62)): 1 ( 1.6%); Domvanalimab-related AE: Pruritus (AB154CSP0001 (N = 62)): 5 (8.1%); Domvanalimab-related AE: Pruritus generalised (AB154CSP0001 (N = 62)): 1 ( 1.6%); Domvanalimab-related AE: Pulmonary pain (AB154CSP0001 (N = 62)): 1 ( 1.6%); Domvanalimab-related AE: Pyrexia (AB154CSP0001 (N = 62)): 3 (4.8%); Domvanalimab-related AE: Rash (AB154CSP0001 (N = 62)): 1 (1.6%); Domvanalimab-related AE: Rash maculo-papular (AB154CSP0001 (N = 62)): 3 (4.8%); Domvanalimab-related AE: Rash pruritic (AB154CSP0001 (N = 62)): 1 ( 1.6%); Domvanalimab-related AE: Transaminases increased (AB154CSP0001 (N = 62)): 1 ( 1.6%); Domvanalimab-related AE: Tumour flare (AB154CSP0001 (N = 62)): 3 (4.8%); Domvanalimab-related AE: Tumour pain (AB154CSP0001 (N = 62)): 1 ( 1.6%); Domvanalimab-related AE: Adrenal insufficiency (ARC-7 (N = 37)): 1 ( 2.7%); Domvanalimab-related AE: Any AEs (ARC-7 (N = 37)): 18 (48.6%); Domvanalimab-related AE: Arthralgia (ARC-7 (N = 37)): 3 (8.1%); Domvanalimab-related AE: Asthenia (ARC-7 (N = 37)): 1 ( 2.7%); Domvanalimab-related AE: Back pain (ARC-7 (N = 37)): 1 ( 2.7%); Domvanalimab-related AE: Constipation (ARC-7 (N = 37)): 1 ( 2.7%); Domvanalimab-related AE: Cough (ARC-7 (N = 37)): 1 ( 2.7%); Domvanalimab-related AE: Decreased appetite (ARC-7 (N = 37)): 2 (5.4%); Domvanalimab-related AE: Delirium (ARC-7 (N = 37)): 1 ( 2.7%); Domvanalimab-related AE: Diarrhoea (ARC-7 (N = 37)): 2 (5.4%); Domvanalimab-related AE: Dry eye (ARC-7 (N = 37)): 1 ( 2.7%); Domvanalimab-related AE: Dry mouth (ARC-7 (N = 37)): 1 ( 2.7%); Domvanalimab-related AE: Dyspnoea exertional (ARC-7 (N = 37)): 1 ( 2.7%); Domvanalimab-related AE: Fatigue (ARC-7 (N = 37)): 2 (5.4%); Domvanalimab-related AE: Generalised oedema (ARC-7 (N = 37)): 1 ( 2.7%); Domvanalimab-related AE: Headache (ARC-7 (N = 37)): 1 (2.7%); Domvanalimab-related AE: Hyperthyroidism (ARC-7 (N = 37)): 1 (2.7%); Domvanalimab-related AE: Infusion related reaction (ARC-7 (N = 37)): 1 ( 2.7%); Domvanalimab-related AE: Infusion site pain (ARC-7 (N = 37)): 1 ( 2.7%); Domvanalimab-related AE: Malaise (ARC-7 (N = 37)): 2 ( 5.4%); Domvanalimab-related AE: Myalgia (ARC-7 (N = 37)): 1 ( 2.7%); Domvanalimab-related AE: Nausea (ARC-7 (N = 37)): 1 (2.7%); Domvanalimab-related AE: Pancreatitis (ARC-7 (N = 37)): 1 ( 2.7%); Domvanalimab-related AE: Paraesthesia (ARC-7 (N = 37)): 1 ( 2.7%); Domvanalimab-related AE: Pneumonitis (ARC-7 (N = 37)): 1 ( 2.7%); Domvanalimab-related AE: Pruritus (ARC-7 (N = 37)): 4 (10.8%); Domvanalimab-related AE: Pyrexia (ARC-7 (N = 37)): 2 (5.4%); Domvanalimab-related AE: Rash (ARC-7 (N = 37)): 3 (8.1%); Domvanalimab-related AE: Rash maculo-papular (ARC-7 (N = 37)): 3 (8.1%); Domvanalimab-related AE: Rhinorrhoea (ARC-7 (N = 37)): 1 ( 2.7%); Domvanalimab-related AE: Vomiting (ARC-7 (N = 37)): 1 ( 2.7%)
